Data taken from FireProtDB (doi:10.1006/jmbi.2000.4053).
Several values for one entry are separate records, joined by “and”; a condition that tells them apart may be missing. Equal values may be shown once.

Settings: Homo sapiens, pH 5, 25 °C
[1] = GdnHCl, CD, Sodium acetate 50 mM, structure 1TTG
[2] = GdnHCl, Fluorescence, Sodium acetate 50mM, transition: 2, structure 1FNF
[3] = GdnHCl, Fluorescence, Sodium acetate 50mM, transition: 2, structure 1TEN
[4] = Urea, CD, Sodium acetate 50 mM, structure 1TEN

Chain of Fibronectin Y1569A, P02751 (P02751 whole entry Y1569A): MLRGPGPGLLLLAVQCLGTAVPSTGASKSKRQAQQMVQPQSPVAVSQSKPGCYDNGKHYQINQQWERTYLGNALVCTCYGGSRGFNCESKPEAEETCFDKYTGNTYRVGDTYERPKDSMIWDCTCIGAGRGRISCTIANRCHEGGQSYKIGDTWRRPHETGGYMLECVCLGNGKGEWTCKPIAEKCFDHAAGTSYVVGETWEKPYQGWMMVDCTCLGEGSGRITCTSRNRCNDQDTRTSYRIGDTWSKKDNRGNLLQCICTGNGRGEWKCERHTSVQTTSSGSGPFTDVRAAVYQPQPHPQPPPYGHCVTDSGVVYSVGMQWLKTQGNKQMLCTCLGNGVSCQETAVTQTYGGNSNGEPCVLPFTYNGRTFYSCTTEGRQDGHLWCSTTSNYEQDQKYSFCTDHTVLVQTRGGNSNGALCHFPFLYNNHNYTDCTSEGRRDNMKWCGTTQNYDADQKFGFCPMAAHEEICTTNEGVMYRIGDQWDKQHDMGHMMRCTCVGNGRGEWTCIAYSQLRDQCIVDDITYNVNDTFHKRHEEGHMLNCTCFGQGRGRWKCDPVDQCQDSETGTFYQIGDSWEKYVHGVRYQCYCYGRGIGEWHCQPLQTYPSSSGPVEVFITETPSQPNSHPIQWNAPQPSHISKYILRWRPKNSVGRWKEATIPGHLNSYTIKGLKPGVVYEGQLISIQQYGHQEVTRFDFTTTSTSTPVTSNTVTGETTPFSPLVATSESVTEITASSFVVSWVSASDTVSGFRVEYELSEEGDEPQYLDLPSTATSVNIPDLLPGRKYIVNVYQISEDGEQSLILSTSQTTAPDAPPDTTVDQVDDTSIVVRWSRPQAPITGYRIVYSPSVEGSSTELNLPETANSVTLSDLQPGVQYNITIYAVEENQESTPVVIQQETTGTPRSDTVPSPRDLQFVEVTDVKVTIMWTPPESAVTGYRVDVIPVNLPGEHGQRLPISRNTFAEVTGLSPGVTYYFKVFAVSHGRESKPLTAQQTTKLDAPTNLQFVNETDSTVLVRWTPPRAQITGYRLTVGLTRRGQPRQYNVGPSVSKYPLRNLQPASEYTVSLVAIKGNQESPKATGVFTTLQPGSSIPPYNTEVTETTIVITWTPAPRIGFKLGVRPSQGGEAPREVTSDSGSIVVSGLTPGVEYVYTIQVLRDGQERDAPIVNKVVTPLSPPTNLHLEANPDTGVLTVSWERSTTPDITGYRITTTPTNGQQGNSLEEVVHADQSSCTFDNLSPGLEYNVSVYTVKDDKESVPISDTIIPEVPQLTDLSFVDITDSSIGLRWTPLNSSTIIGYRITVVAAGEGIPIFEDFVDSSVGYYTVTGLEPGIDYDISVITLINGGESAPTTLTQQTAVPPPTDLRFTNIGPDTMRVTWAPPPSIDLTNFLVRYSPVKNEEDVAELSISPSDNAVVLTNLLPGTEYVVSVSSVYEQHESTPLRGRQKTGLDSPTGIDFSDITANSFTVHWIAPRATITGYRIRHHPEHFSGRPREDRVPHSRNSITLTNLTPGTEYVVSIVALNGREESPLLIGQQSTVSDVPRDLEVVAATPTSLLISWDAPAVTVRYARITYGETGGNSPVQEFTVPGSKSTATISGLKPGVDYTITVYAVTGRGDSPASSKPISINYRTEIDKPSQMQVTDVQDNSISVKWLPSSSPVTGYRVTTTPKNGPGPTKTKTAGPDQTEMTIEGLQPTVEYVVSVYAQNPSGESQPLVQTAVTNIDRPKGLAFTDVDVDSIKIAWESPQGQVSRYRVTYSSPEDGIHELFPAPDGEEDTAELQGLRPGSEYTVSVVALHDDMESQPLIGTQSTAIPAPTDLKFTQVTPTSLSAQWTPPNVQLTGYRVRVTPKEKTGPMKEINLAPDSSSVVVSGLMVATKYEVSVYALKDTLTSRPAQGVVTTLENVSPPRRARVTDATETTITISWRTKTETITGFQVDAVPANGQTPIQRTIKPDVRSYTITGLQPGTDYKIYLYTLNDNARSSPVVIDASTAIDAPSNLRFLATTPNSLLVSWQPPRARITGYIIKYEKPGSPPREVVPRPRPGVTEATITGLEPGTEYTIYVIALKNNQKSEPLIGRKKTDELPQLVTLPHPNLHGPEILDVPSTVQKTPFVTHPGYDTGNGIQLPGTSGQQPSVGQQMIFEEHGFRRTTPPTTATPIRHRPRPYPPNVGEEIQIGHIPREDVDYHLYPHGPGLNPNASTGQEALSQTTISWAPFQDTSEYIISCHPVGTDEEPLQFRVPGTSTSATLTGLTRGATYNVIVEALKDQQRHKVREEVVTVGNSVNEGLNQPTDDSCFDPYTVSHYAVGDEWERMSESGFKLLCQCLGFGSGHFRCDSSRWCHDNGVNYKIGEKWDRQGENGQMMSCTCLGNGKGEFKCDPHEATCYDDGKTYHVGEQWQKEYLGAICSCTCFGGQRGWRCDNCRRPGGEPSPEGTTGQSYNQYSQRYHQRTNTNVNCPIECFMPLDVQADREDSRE
Chain of Fibronectin P1542A, P02751 (P02751 whole entry P1542A): as the sequence (P02751 whole entry Y1569A) above, with P1542A, A1569Y counted along it
Chain of Fibronectin Y1569L, P02751 (P02751 whole entry Y1569L): as the sequence (P02751 whole entry Y1569A) above, with A1569L counted along it
Chain of Fibronectin I1627V, P02751 (P02751 whole entry I1627V): as the sequence (P02751 whole entry Y1569A) above, with A1569Y, I1627V counted along it
Chain of Fibronectin F1585A, P02751 (P02751 whole entry F1585A): as the sequence (P02751 whole entry Y1569A) above, with A1569Y, F1585A counted along it
Chain of Fibronectin S1622A, P02751 (P02751 whole entry S1622A): as the sequence (P02751 whole entry Y1569A) above, with A1569Y, S1622A counted along it
Chain of Fibronectin V1587A, P02751 (P02751 whole entry V1587A): as the sequence (P02751 whole entry Y1569A) above, with A1569Y, V1587A counted along it
Chain of Fibronectin Y1573A, P02751 (P02751 whole entry Y1573A): as the sequence (P02751 whole entry Y1569A) above, with A1569Y, Y1573A counted along it
Chain of Fibronectin I1627A, P02751 (P02751 whole entry I1627A): as the sequence (P02751 whole entry Y1569A) above, with A1569Y, I1627A counted along it
Chain of Fibronectin L1555A, P02751 (P02751 whole entry L1555A): as the sequence (P02751 whole entry Y1569A) above, with L1555A, A1569Y counted along it
Chain of Fibronectin I1625A, P02751 (P02751 whole entry I1625A): as the sequence (P02751 whole entry Y1569A) above, with A1569Y, I1625A counted along it
Chain of Fibronectin I1596V, P02751 (P02751 whole entry I1596V): as the sequence (P02751 whole entry Y1569A) above, with A1569Y, I1596V counted along it
Chain of Fibronectin I1571V, P02751 (P02751 whole entry I1571V): as the sequence (P02751 whole entry Y1569A) above, with A1569Y, I1571V counted along it
Chain of Fibronectin I1607A, P02751 (P02751 whole entry I1607A): as the sequence (P02751 whole entry Y1569A) above, with A1569Y, I1607A counted along it
Chain of Fibronectin A1594G, P02751 (P02751 whole entry A1594G): as the sequence (P02751 whole entry Y1569A) above, with A1569Y, A1594G counted along it
Chain of Fibronectin P1601A, P02751 (P02751 whole entry P1601A): as the sequence (P02751 whole entry Y1569A) above, with A1569Y, P1601A counted along it
Chain of Fibronectin V1547A, P02751 (P02751 whole entry V1547A): as the sequence (P02751 whole entry Y1569A) above, with V1547A, A1569Y counted along it
Chain of Fibronectin L1599A, P02751 (P02751 whole entry L1599A): as the sequence (P02751 whole entry Y1569A) above, with A1569Y, L1599A counted along it
Chain of Fibronectin I1596A, P02751 (P02751 whole entry I1596A): as the sequence (P02751 whole entry Y1569A) above, with A1569Y, I1596A counted along it

Substance | ddG of mutation (higher = less stable) [1] | denaturant m value [1] | denaturant midpoint (higher = more stable) [1] | ddG of mutation (higher = less stable) [4] | denaturant m value [4] | denaturant midpoint (higher = more stable) [4] | further results
Fibronectin I1627V, P02751 | 0.28 kcal/mol | 6.3 kcal/mol/M | 1.43 M |  |  |  | ddG of mutation (higher = less stable) [2]: 1.12 kcal/mol; denaturant m value [2]: 7.1 kcal/mol/M; denaturant midpoint (higher = more stable) [2]: 0.91 M; unfolding free energy [2]: 8.28 kcal/mol
Fibronectin Y1573A, P02751 | 2.29 kcal/mol | 7.9 kcal/mol/M | 1.12 M |  |  |  | 
Tenascin, P24821 L851A |  |  |  | 2.99 kcal/mol | 1.3 kcal/mol/M | 2.87 M | ddG of mutation (higher = less stable) [3]: 2.99 kcal/mol; denaturant m value [3]: 1.93 kcal/mol/M; denaturant midpoint (higher = more stable) [3]: 1.3 M
Fibronectin I1596A, P02751 | 3.66 kcal/mol | 7.2 kcal/mol/M | 0.91 M |  |  |  | 
Tenascin, P24821 P826A |  |  |  | 1.73 kcal/mol | 1 kcal/mol/M | 3.9 M | 
Tenascin, P24821 I821A |  |  |  | 3.67 kcal/mol | 1.3 kcal/mol/M | 2.31 M | ddG of mutation (higher = less stable) [3]: 3.67 kcal/mol; denaturant m value [3]: 5.13 kcal/mol/M; denaturant midpoint (higher = more stable) [3]: 1.2 M
Fibronectin I1596V, P02751 | 1.12 kcal/mol | 7.1 kcal/mol/M | 1.3 M |  |  |  | 
Fibronectin V1587A, P02751 | 2.42 kcal/mol | 5.7 kcal/mol/M | 1.1 M |  |  |  | 
Tenascin, P24821 I833A |  |  |  | 3.28 kcal/mol | 1.2 kcal/mol/M | 2.63 M | ddG of mutation (higher = less stable) [3]: 3.28 kcal/mol; denaturant m value [3]: 4.91 kcal/mol/M; denaturant midpoint (higher = more stable) [3]: 1.1 M
Fibronectin I1625A, P02751 | 0.35 kcal/mol | 6.03 kcal/mol/M | 1.42 M |  |  |  | 
Tenascin, P24821 V871A |  |  |  | 2.81 kcal/mol | 1.3 kcal/mol/M | 3.01 M | 
Fibronectin I1627A, P02751 | 0.35 kcal/mol | 6 kcal/mol/M | 1.42 M |  |  |  | ddG of mutation (higher = less stable) [2]: 3.66 kcal/mol; denaturant m value [2]: 7.2 kcal/mol/M; denaturant midpoint (higher = more stable) [2]: 1.04 M; unfolding free energy [2]: 5.74 kcal/mol
Fibronectin L1555A, P02751 | 0.87 kcal/mol | 6.3 kcal/mol/M | 1.34 M |  |  |  | 
Tenascin, P24821 E887G |  |  |  | 0.34 kcal/mol | 1.3 kcal/mol/M | 5.04 M | ddG of mutation (higher = less stable) [3]: 0.34 kcal/mol
Tenascin, P24821 L835A |  |  |  | 4.29 kcal/mol | 1.4 kcal/mol/M | 1.8 M | 
Tenascin, P24821 V811A |  |  |  | 1.36 kcal/mol | 1.2 kcal/mol/M | 4.21 M | ddG of mutation (higher = less stable) [3]: 1.36 kcal/mol; denaturant m value [3]: 3.03 kcal/mol/M; denaturant midpoint (higher = more stable) [3]: 1.3 M
Fibronectin P1542A, P02751 | -0.11 kcal/mol | 6.4 kcal/mol/M | 1.49 M |  |  |  | 

Substance | ddG of mutation (higher = less stable) [1] | denaturant m value [1] | denaturant midpoint (higher = more stable) [1] | ddG of mutation (higher = less stable) [4] | denaturant m value [4] | denaturant midpoint (higher = more stable) [4] | further results
Fibronectin Y1569A, P02751 | 4.37 kcal/mol and 3.96 kcal/mol | 6.8 kcal/mol/M | 0.8 M |  |  |  | 
Tenascin, P24821 I809V |  |  |  | 0.18 kcal/mol | 1.3 kcal/mol/M | 5.17 M | ddG of mutation (higher = less stable) [3]: 0.18 kcal/mol; denaturant m value [3]: 4.21 kcal/mol/M; denaturant midpoint (higher = more stable) [3]: 1.2 M
Fibronectin S1622A, P02751 | -0.11 kcal/mol | 6.5 kcal/mol/M | 1.49 M |  |  |  | 
Fibronectin Y1569L, P02751 | 2.81 kcal/mol and 2.4 kcal/mol | 6.6 kcal/mol/M | 1.04 M |  |  |  | 
Tenascin, P24821 I849A |  |  |  | 2.19 kcal/mol | 1.1 kcal/mol/M | 3.52 M | ddG of mutation (higher = less stable) [3]: 2.19 kcal/mol; denaturant m value [3]: 2.87 kcal/mol/M; denaturant midpoint (higher = more stable) [3]: 1.1 M
Tenascin, P24821 L873A |  |  |  | 3.06 kcal/mol | 1.4 kcal/mol/M | 2.81 M | 
Fibronectin P1601A, P02751 | 0.41 kcal/mol | 6.6 kcal/mol/M | 1.41 M |  |  |  | 
Tenascin, P24821 I821V |  |  |  | 0.23 kcal/mol | 1.2 kcal/mol/M | 5.13 M | ddG of mutation (higher = less stable) [3]: 0.23 kcal/mol; denaturant m value [3]: 3.9 kcal/mol/M; denaturant midpoint (higher = more stable) [3]: 1 M
Fibronectin V1547A, P02751 | 1.38 kcal/mol | 6.8 kcal/mol/M | 1.26 M |  |  |  | 
Tenascin, P24821 I860A |  |  |  | 2.06 kcal/mol | 1.3 kcal/mol/M | 3.63 M | 
Tenascin, P24821 T867S |  |  |  | 1.22 kcal/mol | 1.2 kcal/mol/M | 4.32 M | 
Tenascin, P24821 E887A |  |  |  | -1.61 kcal/mol | 1.2 kcal/mol/M | 6.64 M | ddG of mutation (higher = less stable) [3]: -1.61 kcal/mol; denaturant m value [3]: 5.04 kcal/mol/M; denaturant midpoint (higher = more stable) [3]: 1.3 M
Fibronectin F1585A, P02751 | 2.16 kcal/mol | 6.8 kcal/mol/M | 1.14 M |  |  |  | 
Fibronectin I1607A, P02751 | 3.72 kcal/mol | 5.6 kcal/mol/M | 0.9 M |  |  |  | 
Fibronectin A1594G, P02751 | 2.81 kcal/mol | 7.1 kcal/mol/M | 1.04 M |  |  |  | 
Fibronectin I1571V, P02751 | 0.41 kcal/mol | 6.9 kcal/mol/M | 1.41 M |  |  |  | 
Fibronectin L1599A, P02751 | 2.94 kcal/mol | 6.6 kcal/mol/M | 1.02 M |  |  |  | 
